The IC50 is the concentration that gives 50% inhibition. Higher therefore signals lower potency. As a reminder, the Kd is a measure of binding affinity in units of concentration.

B2: His-TRAF6_(310-522) (domain or fragment)
chain: DHQIRELTAKMETQSMYVSELKRTIRTLEDKVAEIEAQQCNGIYIWKIGNFGMHLKCQEEEKPVVIHSPGFYTGKPGYKLCMRLHLQLPTAQRCANYISLFVHTMQGEYDSHLPWPFQGTIRLTILDQSEAPVRQNHEEIMDAKPELLAFQRPTIPRNPKGFGYVTFMHLEALRQRTFIKDDTLLVRCEVSTRFDMGSLRREGFQPRSTDAGV
notes: also called His-T6; recombinant TRAF6 wild-type; source: E. coli BL21 Codon Plus RIPL, purified (Ni-NTA)

Assay [1] concerns the target T1, GST-LMP1_181-386 / His-TRAF6_310-522 (Homo sapiens, UniProt Q9Y4K3).
T1 construct: recombinant GST-LMP1_181-386 and His-TRAF6_310-522; made in house; host or cells: E. coli (BL21 Codon Plus RIPL for the His-TRAF protein; DH5α or BL21 Codon Plus RIPL for the GST protein)
The experiment in a line: AlphaScreen PPI inhibition, LMP1-TRAF6. Format: binding. As to the method: (§1) AlphaScreen experiments were performed in 96- or 384-well plates (Perkin Elmer, OptiPlate). In both assay formats, His-TRAF and GST-LMP1, GST-CD40, or GST-RANK proteins were incubated together in 40 µL of PBS (protein concentrations were calculated to the final reaction volume of 60 µL) supplemented with 0.5% BSA (Sigma, #A7030) and 0.1% Tween-20 (AppliChem, #A4974), for 1 h at room temperature (RT). If not indicated otherwise, standard protein concentrations were 300 nM for His-TRAF proteins and 100 nM for GST-LMP1 proteins. Ni-NTA-acceptor (Perkin Elmer, #6760619 C) and GST-acceptor (Perkin Elmer, # 6765300) beads were added each to a final concentration of 1–4 µg per mL in a final reaction volume of 60 µL and incubated for 1 h at RT in the dark. AlphaScreen PPI signals were measured in a CLARIOstar reader (BMG Labtech GmbH).
(§2) All statistical analyses were performed with Prism v10.1.0 software (GraphPad Software Inc.). Two-way ANOVA was performed on experiments with two factors of variance (Figs. 1e and 3a). […] For KD determination, the data from each experiment were cleaned for the hook effect (signal depletion by oversaturation of the beads) and analyzed using the equation one site-specific binding with hill slope (Figs. 1f–i, and Supplementary Fig. 1f). The IC50 was determined using the log(inhibitor) vs. response – variable slope (four parameters) equation (Fig. 8b and d). […]
In general terms: In Alpha technology, singlet oxygen from a donor bead excites a nearby acceptor bead.

The target of assay [2] is T2, GST-CD40 / His-TRAF6_310-522 (Homo sapiens, UniProt Q9Y4K3).
T2 construct: AlphaScreen PPI experiments with GST-CD40 and His-TRAF6_310-522; made in house; host or cells: E. coli (BL21 Codon Plus RIPL for the His-TRAF protein; DH5α or BL21 Codon Plus RIPL for the GST protein)
Nature of the assay: AlphaScreen PPI inhibition, CD40-TRAF6. Format: binding. To be noted: Figure 8 d; best-fit values; 0,03-30 µM peptide. The protocol:
as §1, §2

A further assay has as its system TRAF6_346-504. Nature of the assay: NMR spectroscopy (1H,15N HSQC) of TRAF6 with LMP1 peptide. Format: binding, human. The settings on record: 90 μM 15N-TRAF6, five-fold excess peptide, PBS pH 7.4, 10% D2O, 298 K. As to the method:
For NMR, a His-SUMO-TRAF6 fusion construct was expressed in E. coli Rosetta2 DE3 cells from pET-hSu-TRAF6_346-504. The recombinant protein was uniformly labeled with ^15N by growing expression cultures in ^15N-autoinduction medium. TRAF6 protein was purified from cell lysate via IMAC using a Ni-NTA column. After elution, the protein was transferred to 100 mM Tris-HCl pH 8.0, 300 mM NaCl, 20 mM imidazole, and 5 mM β-mercaptoethanol. SUMO-hydrolase dtUD1 was added (ratio 1:50) and incubated overnight at 4 °C. After cleavage, the protein was subjected to a second Ni-NTA affinity chromatography step and then further purified via size-exclusion chromatography using a Superdex 75 10/300 GL column (Äkta system, GE Healthcare). SEC buffer was PBS ([…], 2.7 mM KCl, 10 mM Na2HPO4, 1.8 mM KH2PO4 pH 7.4, 5 mM β-ME) and was subsequently used in the following NMR experiments. NMR spectra were recorded at 298 K using a Bruker Avance 600 spectrometer with a QCI cryogenic probe and topspin v.3.2 software (Bruker BioSpin). Spectra were processed using NMRDraw v.8.7 of NMRPipe software[86] and analyzed with the CCPN Analysis software v.2.4.1[87]. NMR titrations were performed by recording ^1H,^15N HSQC experiments. For titrations of TRAF6, samples of 90 μM ^15N-labeled TRAF6 in PBS pH 7.4, 10% D2O, and 5 mM β-ME were used. […]

Assay [3] addresses T3, His-TRAF6_(310-522) (human, UniProt Q9Y4K3 310-522).
T3 chain: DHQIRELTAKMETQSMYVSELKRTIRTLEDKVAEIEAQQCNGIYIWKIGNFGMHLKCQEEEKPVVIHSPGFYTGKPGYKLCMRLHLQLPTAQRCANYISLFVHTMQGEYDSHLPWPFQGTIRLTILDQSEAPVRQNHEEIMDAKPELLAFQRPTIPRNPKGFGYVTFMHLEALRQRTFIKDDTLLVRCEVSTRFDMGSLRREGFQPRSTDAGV
The experiment in a line: competition with GST-CD40(216-277).

Assay [4] concerns the target B2. Nature of the assay: AlphaScreen or HTRF; AlphaScreen PPI assay in competition: GST-LMP1 or GST-CD40 with His-TRAF6 (dose-response of TRAF6 inhibitor or control peptide, 4-parameter fit) or GST-LMP1 with His-TRAF2 (30 µM peptide). To be noted: both partners purified.
The target in the next assay is T4, TRAF6_(346-504) for NMR (human, UniProt Q9Y4K3 346-504, uniformly labeled with 15N).
T4 construct: also called 15N-labeled TRAF6; source: E. coli Rosetta2 DE3, purified (Ni-NTA, SUMO cleavage, second Ni-NTA, SEC)
T4 sequence: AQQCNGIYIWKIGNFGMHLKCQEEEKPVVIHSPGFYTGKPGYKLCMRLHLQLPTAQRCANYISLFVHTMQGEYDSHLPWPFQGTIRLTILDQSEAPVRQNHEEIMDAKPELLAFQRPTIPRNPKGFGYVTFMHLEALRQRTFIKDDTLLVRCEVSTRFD
Nature of the assay: NMR titration. The settings on record: both partners purified.

Assay [5] deals with GST-CD40_(216-277) E235Q (human, UniProt P25942 216-277, E235Q).
The target in a further assay is T5, GST-LMP1_(181-386) Y384D (Epstein-Barr virus, UniProt P03230 181-386, Y384D).
T5 construct: also called LMP1 Y384D; source: E. coli DH5α or BL21 Codon Plus RIPL, purified (glutathione Sepharose 4B)
T5 sequence: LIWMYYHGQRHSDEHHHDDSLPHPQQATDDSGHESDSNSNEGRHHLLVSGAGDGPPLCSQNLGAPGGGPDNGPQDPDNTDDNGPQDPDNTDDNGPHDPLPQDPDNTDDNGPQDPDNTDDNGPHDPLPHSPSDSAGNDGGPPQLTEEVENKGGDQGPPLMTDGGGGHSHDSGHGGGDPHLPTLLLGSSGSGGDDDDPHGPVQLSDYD
Nature of the assay: AlphaScreen or HTRF; AlphaScreen PPI assay: His-TRAF and GST-LMP1, GST-CD40 or GST-RANK in PBS with 0.5% BSA and 0.1% Tween-20, 1 h at RT; standard 300 nM His-TRAF and 100 nM GST protein if not indicated otherwise; for KD His-TRAF6 at different concentrations, fit one site-specific binding with hill slope. The settings on record: both partners purified.

For assay [6], the target named is T6, GST-CD40_(216-277) E235Q (human, UniProt P25942 216-277, E235Q).
T6 construct: also called CD40 E235Q; E to Q mutation at P0 of CD40; source: E. coli DH5α or BL21 Codon Plus RIPL, purified (glutathione Sepharose 4B)
T6 sequence: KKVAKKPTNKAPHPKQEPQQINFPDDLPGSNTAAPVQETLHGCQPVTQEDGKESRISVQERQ
The assay is described as above. To be noted: both partners purified.

A further assay deals with T7, GST-RANK_(314-355) E346Q (human, UniProt Q9Y6Q6 314-355, E346Q).
T7 construct: also called RANK E346Q; E to Q mutation at P0 of RANK; source: E. coli DH5α or BL21 Codon Plus RIPL, purified (glutathione Sepharose 4B)
T7 chain: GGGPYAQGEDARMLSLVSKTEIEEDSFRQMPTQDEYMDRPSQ
The description is as above. The settings on record: both partners purified.

The target in assay [7] is B2. The description is as above. The settings on record: both partners purified.
For assay [8], the target named is T8, His-TRAF6_(310-522) R392A (human, UniProt Q9Y4K3 310-522, R392A).
T8 construct: also called TRAF6 R392A; source: E. coli BL21 Codon Plus RIPL, purified (Ni-NTA)
T8 sequence: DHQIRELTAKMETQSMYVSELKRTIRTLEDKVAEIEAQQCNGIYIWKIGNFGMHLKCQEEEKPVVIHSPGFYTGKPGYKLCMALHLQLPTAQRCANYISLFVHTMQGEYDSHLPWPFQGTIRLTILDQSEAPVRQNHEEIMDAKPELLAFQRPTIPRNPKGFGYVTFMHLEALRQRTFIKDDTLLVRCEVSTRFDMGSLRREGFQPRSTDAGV
The description is as above. To be noted: both partners purified.

The target in assay [9] is T9, His-TRAF6_(310-522) K469A (human, UniProt Q9Y4K3 310-522, K469A).
T9 construct: also called TRAF6 K469A; source: E. coli BL21 Codon Plus RIPL, purified (Ni-NTA)
T9 sequence: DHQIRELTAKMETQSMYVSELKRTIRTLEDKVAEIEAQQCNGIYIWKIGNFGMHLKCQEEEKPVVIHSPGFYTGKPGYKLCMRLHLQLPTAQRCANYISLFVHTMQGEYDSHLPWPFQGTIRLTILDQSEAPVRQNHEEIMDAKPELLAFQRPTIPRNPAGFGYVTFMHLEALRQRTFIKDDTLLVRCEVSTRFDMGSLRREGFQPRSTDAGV
The description is as above. The settings on record: both partners purified.

As to DRQIKIWFQNRRMKWKK [control peptide], in assay [1], the “inhibition of LMP1-TRAF6 interaction (in words)” value is “inactive”. Also, the “inhibition of CD40-TRAF6 interaction (in words)” value in assay [2] is reported as “no inhibition”.
Turning to “G378PVQLSYYD [LMP1 peptide G378PVQLSYYD, LMP1 peptide used in NMR titration]”, the “NMR signals of TRAF6 upon peptide addition (in words)” value in the assay on TRAF6_346-504 is “the signals corresponding to some of the TRAF6 residues were broadened beyond detection”.

B1: TRAF6 inhibitor peptide DRQIKIWFQNRRMKWKK-RKIPTEDEY (peptide)
peptide: DRQIKIWFQNRRMKWKKRKIPTEDEY
notes: also called RANK-derived peptide; source: bought: Novus Biologicals NBP2-26506
With B1, the IC50 in the assay with His-TRAF6_(310-522) [3] is 546 nM; in the assay with His-TRAF6_(310-522) [4], 177 nM.
Turning to GPVQLSYYD (source: unlabeled peptide (PSL)) [LMP1 peptide G378PVQLSYYD], the binding result with TRAF6_(346-504) for NMR is listed as “binds”.
B2 gave a Kd in the assay with GST-CD40_(216-277) E235Q [5] of 73.9 nM. Moreover, the “fold reduction of affinity against wild-type LMP1” value with GST-LMP1_(181-386) Y384D was 1.8 fold. Also, in the assay with GST-CD40_(216-277) E235Q [6], the “factor of reduction of affinity against wild-type CD40” value was found to be 4.3 fold. In the assay with GST-RANK_(314-355) E346Q, the “factor of reduction of affinity against wild-type RANK” value was 2 fold.

B3: GST-CD40_(216-277) (domain or fragment)
chain: KKVAKKPTNKAPHPKQEPQEINFPDDLPGSNTAAPVQETLHGCQPVTQEDGKESRISVQERQ
notes: source: E. coli DH5α or BL21 Codon Plus RIPL, purified (glutathione Sepharose 4B)
On to B3, for which the Kd with His-TRAF6_(310-522) [7] stood at 17.1 nM. Besides, the binding result in assay [8] and in assay [9] was “binds” each time.

These data come from paper PMC10776578, “Epstein-Barr virus-driven B cell lymphoma mediated by a direct LMP1-TRAF6 complex” (Nature Communications, 2024).
